Columns and labels:
[1] = target: T1, hCMV UL128, UL130 and UL131A co-expressed in HEK293T cells (human cytomegalovirus, UniProt P16837 1-171; P16772 1-214); assay: cell-based or functional assay
[2] = target: T1, hCMV UL128, UL130 and UL131A …; assay: cell-based or functional assay; remark: listed apart in the source
[3] = target: T2, hCMV gH, gL, UL128, UL130 and UL131A co-expressed in HEK293T cells (human cytomegalovirus, UniProt P12824 24-743; P16832 31-278; P16837 1-171; P16772 1-214); assay: cell cross-competition, 20x excess; competitor 2F4-biotin
T2 construct: whole, on cells; also called gH + gL + UL128 + UL130 + UL131A; gH/gL/UL128-130 complex

[4] = target: T2, hCMV gH, gL, UL128, UL130 and UL131A …; assay: cell cross-competition, 20x excess; competitor 6G4-biotin
[5] = target: T2, hCMV gH, gL, UL128, UL130 and UL131A …; assay: cell cross-competition, 20x excess; competitor 9I6-biotin
[6] = target: T2, hCMV gH, gL, UL128, UL130 and UL131A …; assay: cell cross-competition, 20x excess; competitor 1F11-biotin
[7] = target: T2, hCMV gH, gL, UL128, UL130 and UL131A …; assay: cell cross-competition, 20x excess; competitor 4I22-biotin
[8] = target: T2, hCMV gH, gL, UL128, UL130 and UL131A …; assay: cell cross-competition, 20x excess; competitor 2C12-biotin
[9] = target: T2, hCMV gH, gL, UL128, UL130 and UL131A …; assay: cell cross-competition, 20x excess; competitor 8C15-biotin
[10] = target: T2, hCMV gH, gL, UL128, UL130 and UL131A …; assay: cell cross-competition, 20x excess; competitor 8I21-biotin
[11] = target: T2, hCMV gH, gL, UL128, UL130 and UL131A …; assay: cell cross-competition, 20x excess; competitor 8J16-biotin
[12] = target: T2, hCMV gH, gL, UL128, UL130 and UL131A …; assay: cell cross-competition, 20x excess; competitor 5A2-biotin
[13] = target: T2, hCMV gH, gL, UL128, UL130 and UL131A …; assay: cell cross-competition, 20x excess; competitor 10F7-biotin
[14] = target: T2, hCMV gH, gL, UL128, UL130 and UL131A …; assay: cell cross-competition, 20x excess; competitor 15D8-biotin
[15] = target: T2, hCMV gH, gL, UL128, UL130 and UL131A …; assay: cell cross-competition, 20x excess; competitor 4N10-biotin

T1 sequence (P16837 whole entry, chain 1 of 2): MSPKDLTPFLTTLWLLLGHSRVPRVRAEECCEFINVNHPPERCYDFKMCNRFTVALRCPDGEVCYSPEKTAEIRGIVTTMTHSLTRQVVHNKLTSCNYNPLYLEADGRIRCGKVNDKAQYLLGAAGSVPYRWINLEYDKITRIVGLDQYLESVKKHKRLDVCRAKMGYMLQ
T1 sequence (P16772 whole entry, chain 2 of 2): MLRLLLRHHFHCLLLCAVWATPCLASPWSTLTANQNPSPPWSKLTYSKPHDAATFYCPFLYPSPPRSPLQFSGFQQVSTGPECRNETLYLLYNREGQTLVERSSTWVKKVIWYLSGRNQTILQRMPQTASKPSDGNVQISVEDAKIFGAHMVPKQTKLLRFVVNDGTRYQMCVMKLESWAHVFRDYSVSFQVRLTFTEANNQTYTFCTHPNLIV

| Binder | 50% Neutralization ARPE (hCMV VR1814) [1] | 50% Neutralization MRC-9 (hCMV VR1814) [1] | 90% Neutralization ARPE (hCMV VR1814) [2] | 90% Neutralization MRC-9 (hCMV VR1814) [2] | Inhibition of binding (%) [3] | Inhibition of binding (%) [4] | Inhibition of binding (%) [5] | Inhibition of binding (%) [6] | Inhibition of binding (%) [7] | Inhibition of binding (%) [8] | Inhibition of binding (%) [9] | Inhibition of binding (%) [10] | Inhibition of binding (%) [11] | Inhibition of binding (%) [12] | Inhibition of binding (%) [13] | Inhibition of binding (%) [14] | Inhibition of binding (%) [15] |
| --- | --- | --- | --- | --- | --- | --- | --- | --- | --- | --- | --- | --- | --- | --- | --- | --- | --- |
| 8J16 (antibody, V domains shown, human IgG mAb; also called 8J16-biotin) VH: QVQLQESGPGLVKPSETLSLTCSVSGGFTSSYYWSWIRQAPGKGLEWIGYVYYGESTDYNPSLKSRATISIDTSKNQFSLKLSSVTAADTAVYYCAREVDKRGFDYWGQGALVTVSS VL: EIVLTQSPGTLSLSPGERATLSCRASQSVSGGYLAWYQQEPGQAPRLVIYGASSRATGIPDRFSASGSGTDFTLTITRLEPEDFAVYYCQQYGRTPLTFGGGTKVEIK | < 0.001 µg/mL | > 2 µg/mL | 0.0008 µg/mL | > 10 µg/mL | 0% | 100% | 70% | 0% | 0% | 100% | 100% | 0% | 100% | – | – | – | – |
| 8C15 (antibody, V domains shown, human IgG mAb; also called 8C15-biotin) VH: QVQLQESGPGLVKPSETLSLTCTVSGGSIRSYYWSWIRQPPGKGLEWIGHIYYSGNTNYSPSLQSRVTISLDTPKNQFSLRLSSVTAADTAVYYCARHDVIVVRGVFDVWGQGTVVTVSS VL: QSALTQPASVSGSPGQSITISCTGTSSDIGTYNLVSWYQQHPGKAPKVLIYDGSKRPSGVSSRFSASKSGNTASLTISGLQAEDETDYYCCSYAGTSDFFVVFGGGTKLTVL | < 0.001 µg/mL | > 2 µg/mL | 0.0025 µg/mL | > 10 µg/mL | – | 100% | 100% | – | 0% | 100% | 100% | 0% | 100% | – | – | – | – |
| 7B13 (antibody, V domains shown, human IgG mAb) VH: QVQLVESGGGVVQPGGSLRLSCAASGFSFSNYGMHWVRQAPGKGLEWVALIPSDGNYQYYTDSVKGRFTVSRDNSRNTLYLQMKSLRAEDTARYHCAHLGGGLFDFWGQGTLVTVSS VL: QSALNQPRSVSGSPGQSVSISCTGSSSDVGGYEFVSWYQHHPGKAPKLIIYDVDKRPSGVPDRFSGSRSGDTASLTISGLQAEDEADYYCYSSADTWVFGGGTKLTVL | < 0.001 µg/mL | > 2 µg/mL | 0.003 µg/mL | > 10 µg/mL | – | 100% | 100% | – | – | 100% | 100% | 0% | 100% | – | – | – | – |
| 7I13 (antibody, V domains shown, human IgG mAb) VH: QVQLVESGGGVVQPGRSLRLSCAASGFTFSNYGMHWVRQGPGKGLEWVAVISYDASSKYYTDSVQGRFTISRDNSKNTLFLQMNSLRGEDTAVYYCAKALRYLDWFLSDPFDYWGQGTLVTVSS VL: EIVLTQSPGTLSLSPGERATLSCRASQSVSSDFLAWYQQKPGQAPRLLIYGASSRATGIPDRFSGSGSGTDFTLTISRLEPEDFAVYYCQQYAASPPFGQGTRLEIK | < 0.01 µg/mL | > 2 µg/mL | 0.008 µg/mL | > 10 µg/mL | – | 0% | 0% | 0% | – | 0% | 0% | 0% | 0% | – | – | – | – |
| 2C12 (antibody, V domains shown, human IgG mAb; also called 2C12-biotin) VH: QITLRESGPTLVKPTQTLTLTCTFSGFSLNTNGVGVGWIRQPPGKALEWLALIYWNGNEGYSPSLKSRLTITKDTSKNQVVLTMTNMDPVDTATYYCVHWPQGLTTVTRLAFDIWGQGTMVTVSS VL: QSALTQPRSVSGSPGQSVTISCTGTTSDVGRYNFVSWYQQHPGKAPKLLMYDVSQRPSGVPSRFSGSKSGNTASLTISGLQAEDEAVFYCCSYAGGNFFSYVFGTGTKVTVL | < 0.01 µg/mL | ≤ 2 µg/mL | 0.006 µg/mL | > 10 µg/mL | 0% | 100% | 100% | 0% | 0% | 100% | 100% | 0% | 100% | 0% | 0% | 0% | 0% |
| 9I6 (antibody, V domains shown, human IgG mAb; also called 9I6-biotin; 916) VH: EVQLVQSGAEVKKPGESLKISCRESGDTFPAYWIAWVRQMPGKGLEWMGIIYPIDSETTYSPSFQGQVTISADKSINTAYLQWSSLKASDSAIYYCARGTSTGLREAFHIWGQGTMVTVSS VL: DVVMTQSPLSLAVTLGQPAYISCRSSQSLGYSDGNTYLNWFQQRPGQSPRRLIYEVSNRDSGVPDRFSGSGSGTDFTLKISRVEAEDVGTYYCMQGTHWPPMCSFGQGTKLEIK | < 0.001 µg/mL | > 2 µg/mL | 0.0007 µg/mL | > 10 µg/mL | 0% | 100% | 100% | 0% | 0% | 100% | 100% | 0% | 100% | – | – | – | – |

From patent US20100092481A1 (INSTITUTE FOR RESEARCH IN BIOMEDICINE, published 2010)
